Results taken from the supplement of paper PMC10126150.
± gives the standard deviation of the averaged measurements.

System: ATP
Assay: switch fluorescence ratio, 500 uM ATP over buffer (Cy3 cluster intensity, sum of 5 cycles each) (fold (ratio)); higher = stronger signal-on switching upon ATP binding; sequences stand for … in TCGTCGGCAGCGTCAGATGTGTATAAGAGACAGTTTTTTTTTTTTTTTTTTTTTTTTT…TC
Conditions: aptamer strand: ATP DNA aptamer (quencher-CACCTGGGGGAGTATTGCGGAGGAAGG + anchor), 100 nM annealed; ATP concentration: 500 uM
Summary of the method: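 Per cluster, summed Cy3 intensity from the target cycles was divided by that from the buffer cycles to give the fluorescence ratio, then averaged per switch-domain sequence. Clusters outside 100-1000 RFU were excluded. The Cy3-labelled switching-strand clusters, on a modified Illumina MiSeq flow-cell, were annealed to 100 nM quencher-labelled ATP aptamer and imaged in selection buffer, then after 15 min with 500 uM ATP at 22 °C, for five cycles with NaOH stripping and re-annealing between them.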
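Further: ATP exposure 15 min at 22 °C before imaging.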

GTGTACCCGT
switch fluorescence ratio: 0.96 ± 0.035

GTGTACGGTG
switch fluorescence ratio: 1.01 ± 0.013

GTGTAGGCTT
switch fluorescence ratio: 1 ± 0.015

GTGTAGGGGT
switch fluorescence ratio: 0.9779 ± 0.0083

GTGTATATAC
switch fluorescence ratio: 0.993 ± 0.013

GTGTATGCAA
switch fluorescence ratio: 1.03 ± 0.029

GTGTATGGGG
switch fluorescence ratio: 0.968 ± 0.063

GTGTATGTTG
switch fluorescence ratio: 0.9976 ± 0.0067

GTGTATTGGG
switch fluorescence ratio: 0.993 ± 0.025

GTGTCATTTT
switch fluorescence ratio: 0.991 ± 0.025

GTGTCCACAG
switch fluorescence ratio: 1 ± 0.014

GTGTCTCCAG
switch fluorescence ratio: 1.03 ± 0.049

GTGTGAAATC
switch fluorescence ratio: 0.987 ± 0.043

GTGTGAAGGT
switch fluorescence ratio: 0.991 ± 0.032

GTGTGACAGA
switch fluorescence ratio: 1.01 ± 0.014

GTGTGACTTC
switch fluorescence ratio: 0.988 ± 0.018

GTGTGATGTG
switch fluorescence ratio: 0.9681 ± 0.0051

GTGTGCAGGG
switch fluorescence ratio: 0.945 ± 0.031

GTGTGCCAGC
switch fluorescence ratio: 0.969 ± 0.013

GTGTGCCGGG
switch fluorescence ratio: 0.97 ± 0.0043

GTGTGCCTGG
switch fluorescence ratio: 0.985 ± 0.055

GTGTGCTGCA
switch fluorescence ratio: 1.03 ± 0.092

GTGTGTAATT
switch fluorescence ratio: 1.01 ± 0.059

GTGTGTTCTT
switch fluorescence ratio: 1.014 ± 0.008

GTGTTAACCT
switch fluorescence ratio: 1.25 ± 0.045

GTGTTAACGG
switch fluorescence ratio: 0.982 ± 0.017

GTGTTAGAAG
switch fluorescence ratio: 0.9749 ± 0.0015

GTGTTAGCGA
switch fluorescence ratio: 0.997 ± 0.045

GTGTTAGTAC
switch fluorescence ratio: 0.984 ± 0.056

GTGTTATAGT
switch fluorescence ratio: 0.993 ± 0.024

GTGTTATCGG
switch fluorescence ratio: 1 ± 0.045

GTGTTATTTA
switch fluorescence ratio: 0.977 ± 0.046

GTGTTCCGTG
switch fluorescence ratio: 1.01 ± 0.015

GTGTTCGGTA
switch fluorescence ratio: 0.9704 ± 0.0062

GTGTTGAACG
switch fluorescence ratio: 1.04 ± 0.071

GTGTTGAGGC
switch fluorescence ratio: 0.974 ± 0.05

GTGTTGAGGT
switch fluorescence ratio: 0.984 ± 0.022

GTGTTTACGA
switch fluorescence ratio: 0.984 ± 0.027

GTGTTTACTT
switch fluorescence ratio: 1.01 ± 0.021

GTGTTTATGA
switch fluorescence ratio: 1.06 ± 0.053

GTGTTTCTAT
switch fluorescence ratio: 1 ± 0.013

GTGTTTGTGG
switch fluorescence ratio: 0.966 ± 0.033

GTGTTTGTGT
switch fluorescence ratio: 0.983 ± 0.028

GTGTTTGTTG
switch fluorescence ratio: 0.989 ± 0.029

GTGTTTTAGC
switch fluorescence ratio: 1.009 ± 0.0098

GTGTTTTCAG
switch fluorescence ratio: 0.988 ± 0.03

GTGTTTTCCA
switch fluorescence ratio: 0.985 ± 0.036

GTGTTTTGAA
switch fluorescence ratio: 1.01 ± 0.022

GTGTTTTTGG
switch fluorescence ratio: 0.983 ± 0.022

GTTAAAAAAT
switch fluorescence ratio: 1.06 ± 0.17

GTTAAAGATT
switch fluorescence ratio: 1.001 ± 0.0083

GTTAAAGCAT
switch fluorescence ratio: 1.01 ± 0.03

GTTAAAGGGC
switch fluorescence ratio: 1.03 ± 0.034

GTTAAGGGGC
switch fluorescence ratio: 0.996 ± 0.017

GTTAATGGGG
switch fluorescence ratio: 0.986 ± 0.054

GTTACATGTT
switch fluorescence ratio: 0.993 ± 0.024

GTTACCAGGT
switch fluorescence ratio: 1.16 ± 0.097

GTTACGGGGT
switch fluorescence ratio: 0.975 ± 0.024

GTTACTATTT
switch fluorescence ratio: 1.01 ± 0.019

GTTACTCTGA
switch fluorescence ratio: 1.055 ± 0.0083

GTTACTGTGG
switch fluorescence ratio: 0.9663 ± 0.005

GTTACTTGAG
switch fluorescence ratio: 0.9985 ± 0.005

GTTAGAATGG
switch fluorescence ratio: 0.981 ± 0.017

GTTAGCCGAA
switch fluorescence ratio: 1.05 ± 0.032

GTTAGCGAAG
switch fluorescence ratio: 1 ± 0.019

GTTAGGAGAA
switch fluorescence ratio: 0.9807 ± 0.0092

GTTAGGGCGT
switch fluorescence ratio: 1.01 ± 0.011

GTTAGGGGG
switch fluorescence ratio: 1.02 ± 0.023

GTTAGGGTTT
switch fluorescence ratio: 0.996 ± 0.024

GTTAGTAGGT
switch fluorescence ratio: 0.994 ± 0.021

GTTAGTGGTT
switch fluorescence ratio: 1.02 ± 0.015

GTTAGTGTTT
switch fluorescence ratio: 1.01 ± 0.013

GTTAGTTTGG
switch fluorescence ratio: 1 ± 0.015

GTTATAAGGA
switch fluorescence ratio: 0.988 ± 0.019

GTTATACGGG
switch fluorescence ratio: 1.01 ± 0.024

GTTATCAGAG
switch fluorescence ratio: 0.977 ± 0.021

GTTATCGGCG
switch fluorescence ratio: 1.01 ± 0.022

GTTATGAGTC
switch fluorescence ratio: 1.02 ± 0.03

GTTATGCGCC
switch fluorescence ratio: 1.02 ± 0.028

GTTATGGGTA
switch fluorescence ratio: 0.989 ± 0.025

GTTATTAGAG
switch fluorescence ratio: 0.987 ± 0.026

GTTATTCATT
switch fluorescence ratio: 1.004 ± 0.0034

GTTATTGCTC
switch fluorescence ratio: 1.12 ± 0.19

GTTATTGCTT
switch fluorescence ratio: 0.98 ± 0.068

GTTATTGTAT
switch fluorescence ratio: 0.977 ± 0.014

GTTATTTGCT
switch fluorescence ratio: 0.988 ± 0.02

GTTATTTTAG
switch fluorescence ratio: 0.988 ± 0.037

GTTATTTTCG
switch fluorescence ratio: 0.987 ± 0.028

GTTATTTTGA
switch fluorescence ratio: 1.01 ± 0.017

GTTCAAACGG
switch fluorescence ratio: 0.967 ± 0.018

GTTCAACTCA
switch fluorescence ratio: 0.993 ± 0.012

GTTCCCGGGA
switch fluorescence ratio: 1.028 ± 0.0024

GTTCCGCCTG
switch fluorescence ratio: 1.094 ± 0.0043

GTTCCGGGGT
switch fluorescence ratio: 1.05 ± 0.05

GTTCCTCGCT
switch fluorescence ratio: 2.77 ± 0.33

GTTCGCGGGG
switch fluorescence ratio: 1.06 ± 0.12

GTTCGGAATT
switch fluorescence ratio: 1.031 ± 0.0013

GTTCGGCGAT
switch fluorescence ratio: 1.03 ± 0.013

GTTCGGGCAT
switch fluorescence ratio: 1.07 ± 0.026

GTTCGGGGTA
switch fluorescence ratio: 0.995 ± 0.031

GTTCTCATTT
switch fluorescence ratio: 0.995 ± 0.025

GTTCTGAGGT
switch fluorescence ratio: 1 ± 0.0014

GTTCTTCAGA
switch fluorescence ratio: 0.9705 ± 0.0056

GTTCTTGAAA
switch fluorescence ratio: 0.977 ± 0.036

GTTCTTTGT
switch fluorescence ratio: 0.9894 ± 0.0093

GTTGAACCGG
switch fluorescence ratio: 0.988 ± 0.02

GTTGAATATG
switch fluorescence ratio: 1.01 ± 0.029

GTTGACGGTA
switch fluorescence ratio: 1.01 ± 0.015

GTTGACTCAT
switch fluorescence ratio: 0.97827 ± 0.00051

GTTGAGAGTG
switch fluorescence ratio: 1 ± 0.049

GTTGAGCGTC
switch fluorescence ratio: 0.955 ± 0.032

GTTGAGGGGG
switch fluorescence ratio: 1.01 ± 0.047

GTTGAGGGGT
switch fluorescence ratio: 0.993 ± 0.027

GTTGATTCTA
switch fluorescence ratio: 0.988 ± 0.034

GTTGATTTGC
switch fluorescence ratio: 1.02 ± 0.089

GTTGATTTTT
switch fluorescence ratio: 0.982 ± 0.018

GTTGCAAAAA
switch fluorescence ratio: 1.18 ± 0.32

GTTGCACTGG
switch fluorescence ratio: 1.01 ± 0.011

GTTGCAGTCA
switch fluorescence ratio: 0.949 ± 0.042

GTTGCATTCA
switch fluorescence ratio: 1.01 ± 0.033

GTTGCGAGGG
switch fluorescence ratio: 1.02 ± 0.016

GTTGCTAGTA
switch fluorescence ratio: 1 ± 0.011

GTTGCTATGA
switch fluorescence ratio: 1.02 ± 0.017

GTTGCTGTCA
switch fluorescence ratio: 1.06 ± 0.043

GTTGGAATCG
switch fluorescence ratio: 0.991 ± 0.018

GTTGGAATTT
switch fluorescence ratio: 0.966 ± 0.023

GTTGGACTGG
switch fluorescence ratio: 1.01 ± 0.037

GTTGGAGCAT
switch fluorescence ratio: 1.086 ± 0.0023

GTTGGAGGCG
switch fluorescence ratio: 0.969 ± 0.049

GTTGGATGGT
switch fluorescence ratio: 0.964 ± 0.019

GTTGGATTAG
switch fluorescence ratio: 0.993 ± 0.017

GTTGGCATTA
switch fluorescence ratio: 1.03 ± 0.023

GTTGGGAAGA
switch fluorescence ratio: 1.01 ± 0.034

GTTGGGAGCA
switch fluorescence ratio: 1.004 ± 0.0072

GTTGGGAGGT
switch fluorescence ratio: 0.982 ± 0.015

GTTGGGATTC
switch fluorescence ratio: 0.986 ± 0.049

GTTGGGGCGT
switch fluorescence ratio: 0.97 ± 0.044

GTTGGGGGAA
switch fluorescence ratio: 0.983 ± 0.023

GTTGGGGTAA
switch fluorescence ratio: 0.9927 ± 0.0067

GTTGGGGTGG
switch fluorescence ratio: 1.04 ± 0.12

GTTGGGTACT
switch fluorescence ratio: 0.998 ± 0.037

GTTGGGTTCC
switch fluorescence ratio: 1.02 ± 0.02

GTTGGGTTCT
switch fluorescence ratio: 1.03 ± 0.021

GTTGGGTTGC
switch fluorescence ratio: 0.999 ± 0.018

GTTGGTAATT
switch fluorescence ratio: 0.987 ± 0.015

GTTGGTATGA
switch fluorescence ratio: 0.989 ± 0.017

GTTGGTATT
switch fluorescence ratio: 1.01 ± 0.024

GTTGGTCCTT
switch fluorescence ratio: 0.9928 ± 0.003

GTTGGTCGGG
switch fluorescence ratio: 1.02 ± 0.037

GTTGGTGTGT
switch fluorescence ratio: 0.9667 ± 0.0071

GTTGTAATGG
switch fluorescence ratio: 1.01 ± 0.049

GTTGTAGCTC
switch fluorescence ratio: 1 ± 0.023

GTTGTAGTGT
switch fluorescence ratio: 1.011 ± 0.0011

GTTGTATCAT
switch fluorescence ratio: 0.98846 ± 0.00088

GTTGTATTGT
switch fluorescence ratio: 0.999 ± 0.019

GTTGTCAATG
switch fluorescence ratio: 0.974 ± 0.021

GTTGTCATGT
switch fluorescence ratio: 0.991 ± 0.017

GTTGTCCGGG
switch fluorescence ratio: 1 ± 0.027

GTTGTGGTCA
switch fluorescence ratio: 0.9771 ± 0.0067

GTTGTGGTTG
switch fluorescence ratio: 0.987 ± 0.035

GTTGTGTGAT
switch fluorescence ratio: 0.982 ± 0.027

GTTGTGTGTT
switch fluorescence ratio: 0.975 ± 0.016

GTTGTTGAGG
switch fluorescence ratio: 0.999 ± 0.012

GTTGTTGGGG
switch fluorescence ratio: 0.974 ± 0.043

GTTGTTGTTG
switch fluorescence ratio: 0.996 ± 0.045

GTTTAACCCG
switch fluorescence ratio: 1.002 ± 0.0033

GTTTAAGCGG
switch fluorescence ratio: 0.969 ± 0.034

GTTTAAGGGG
switch fluorescence ratio: 1.005 ± 0.0068

GTTTAATGTT
switch fluorescence ratio: 1.023 ± 0.0022

GTTTAATTGA
switch fluorescence ratio: 0.9676 ± 0.0018

GTTTACAAGT
switch fluorescence ratio: 0.992 ± 0.027

GTTTACGGGG
switch fluorescence ratio: 0.997 ± 0.041

GTTTACTGAA
switch fluorescence ratio: 1.01 ± 0.018

GTTTACTTAG
switch fluorescence ratio: 1.024 ± 0.005

GTTTACTTAT
switch fluorescence ratio: 1.037 ± 0.0024

GTTTAGAATT
switch fluorescence ratio: 1.004 ± 0.01

GTTTAGGGGG
switch fluorescence ratio: 0.994 ± 0.018

GTTTATAAAG
switch fluorescence ratio: 0.9899 ± 0.0023

GTTTATCTGC
switch fluorescence ratio: 1.02 ± 0.025

GTTTATGCAG
switch fluorescence ratio: 0.968 ± 0.017

GTTTATGTAC
switch fluorescence ratio: 1.07 ± 0.065

GTTTATTCGG
switch fluorescence ratio: 0.981 ± 0.019

GTTTCCAGGG
switch fluorescence ratio: 1.16 ± 0.023

GTTTCCGTTG
switch fluorescence ratio: 0.98414 ± 0.00058

GTTTCGCAGG
switch fluorescence ratio: 1.01 ± 0.015

GTTTCGCGGT
switch fluorescence ratio: 1.04 ± 0.067

GTTTCTGTGT
switch fluorescence ratio: 0.956 ± 0.012

GTTTGAGACG
switch fluorescence ratio: 0.903 ± 0.044

GTTTGAGGGA
switch fluorescence ratio: 0.982 ± 0.035

GTTTGAGTTG
switch fluorescence ratio: 1.01 ± 0.038

GTTTGATAAA
switch fluorescence ratio: 0.981 ± 0.034

GTTTGATGAA
switch fluorescence ratio: 0.994 ± 0.084

GTTTGCGTAT
switch fluorescence ratio: 1.02 ± 0.048

GTTTGGAGAA
switch fluorescence ratio: 1.01 ± 0.034

GTTTGGCTTT
switch fluorescence ratio: 1.015 ± 0.0012

GTTTGGGAAC
switch fluorescence ratio: 1.02 ± 0.019

GTTTGGGGCC
switch fluorescence ratio: 1.057 ± 0.01

GTTTGGGTGA
switch fluorescence ratio: 1 ± 0.026

GTTTGGGTGG
switch fluorescence ratio: 0.9979 ± 0.0065

GTTTGGTATG
switch fluorescence ratio: 0.988 ± 0.017
